# Measurements published in the DeepSol protein solubility set.
# Test: soluble on expression in E. coli; label from the status in PepcDB or PDB records
row,Sequence,soluble on expression in E. coli
1,AHHHHHHGSILLLTGMPGSGKGVVAREFEKRGIPVVSMGDAIREEAEKRGIPKTPEGLKEVSLKVREELGPGAVAILTVPKVRKLLELNPVVVVEGVRSPYEVEEFRKEFKNEEIKVVAIHSSPKSRFQRLLKRQRSDDPKTWEEFVERDRKELNFGIGEVIALADYIIVNECGFDQLKANIEKLISMIFDGKI,soluble
2,MSLNVVKFGGSSLASAPQLQKVLQIVKEEPRRTFVVVSAPGKRTPQDIKVTDLLIQYYQRYLNNEEIESTISAIIRRYEDLFDELHLDKAVLADIAISIRQLATLPKENNAFLFDYFLASGEDNNAKVVASFFKQNGLDARYISPKELGLLVTPEPGNARILPKALEKISVYRETQQILVIPGFFGYTEAGEICTFSRGGSDITGSIVAAGVQADLYENFTDVDGIYVAHPGIIEQPQTIQELTYREMRELAYAGFAVLHDEALMPAYRANIPVVIKNTNNPHHPGTLITTSRKVKHAPVVGIASDQGFASIYISKYLMNRELGFGRRLLEVLEKLALSYEHMPSGIDDITIVLREDQLTTEIENRLMAQLQEVLAPDELRITHHLSMIMIVGEGMRQRIGVTAESTMALAKEKINLEMINQGSSEVSIMFGIKKEQEEKAIKALYRTFFHDEGHHHHHH,soluble
3,MGSDKIHHHHHHMFSYEKVQTLNQLELFVYKYVTSHLEECKTMTIRDLSTQSHVSSTTILRFLKKMGFEGFSDFKYVLRHRNDRTPASELSQDLGPIGQFLKQTATTEYTEKMEEVARVVAQSNTRLFFGMGSSGSMAQYGARILSNYGMLTLAITDPFQPQPISERDYSKTLIILLSVSGETEGVLTQANYYRQNGAKIVAITANSTSTLAQIADYSLTYDIPENKVGSLNFTSQIPVVYLLEQLGEKTSKLVYHPEISHEI,not soluble
4,GGDKQEAPITKNSIAGGQSESANSTMPGIVVPIISAETSHAAGNADPDVPDTAPLAIDTALESAWQPAKGDTLVLNFAQPYVISRVIVDSPTKDMTLEVRAGDTVVGTGTVTKSRTKITVTPAPAVTSLSIRVVGVPDGVSPEINDVKLVAKI,not soluble
5,MSSRLARFALSGYRIAGIAAYPFARPYLSYRAAKGKEDKRRRLERFGYASAERPRGPLVWFHAASVGETLALIPLIREIRKRDIFVLLTTGTVTSAELTRTRLGDDVIHQYVPLDIKIAVNRFLTYWAPDAAITAESEIWPVTMMELERRHIPQIRVNARLSDRSFDRWKARHDIAESLFSKLALVVAQSDLDAERFRDLGSWPVVISGNLKGDTDPPPCDEALLESYRKQVGNRKTWAAISTFDGEEKAAATVHAAIKSRNGQLTIIVPRHPERGDDVEAMLKGMNLSVARRSRNDVITPGTDIFLGDSIGEMGLYLRLTELAFVGRSLTAEGGQNPLEPAMLGCAVLSGAHVQNFREAYQKLIRAGGGRIIRDVEMLAKAVHYLLVNDNERYKMIDAGNRVIQDMRGALSSTVKALEPYINPLTVSAKLQPRSAIGSWLEHHHHHH,not soluble
6,MGSDKIHHHHHHMMRLIRDLAQRPNPPDVGFQFVTDEEIGGRHGTGRLRDEGWHCDFMLCLEPTDLGIMFEHKGGMWAQLRIPGRAAHGSRPWEGDNPVYRLMQGIQAISERYPPPTGPHDWRTSVTPTEIRMGAGSRNQVPAEALVTFDIRWTADTTPETIQADLAAAFPDAEFISVMASAGLRTDPEHQEVGRIADIVERHIGHTPRFYREHFATDARYYSHIGIPAICLGPVGAGLHSAEEWVEIASLTSLYQIILDYIDTM,not soluble
7,MGSDKIHHHHHHACDDYLDDVPKGQKIPKTWEDYNAFIRNNFSYHFLDPDQLAVLAGDIFKLPSAVTSPSLTRANYYADESVNRIDLMTGNDKNPYFNAYEGLFAWNLIVEDVPDATECTEVQRRQLIAQGRVLRAMHYFYLANFYADQYDEATKDKLSVPLITSASVEAPSPQVTLQTIYEFMLDDLNKAVEDLPVHSESILHPNRALGYGMLARVYLSVGDYDNALKNASLALEQNDQLFNWIDLYEADKERYDDPKNYTSGVAGNPETDNVENYIYCYGSSTSGWTGLNNTSYAISPERAARFEKGDTRLLTHWKSRVSSSGIPYYAGIYALEMNKGGMRSPEMYYIKAECLARKGGEANIREAMELVNKVRKTRILLEFYQDWTAATTKEAVEKIIRDKESEYIQTQVIYCDYRRLNKDPEYARTFPRTIEGKEYILKSDSHLWIMPFPREAVSNPGNGTITQNVEK,not soluble
8,MRYRDFDIFKFWFRAVEKFAPWVHKIYLITDNQVPDWLDTRNSKLTVIDHRDIMDADWLPTFNSNAIELNAYKIKNLSEKFVLFNDDTILNSYVDKVDFFDENYPKDIYVESPIMATKGSVDHIMVNNVEIINEFFEKKNFYKKNLTKVFNPKIGIKLLRTLALLPSSKFAGFWNSHLPISYNKTTFETVWSNCEGKLVATSKNKFRTAYDVSHWLMRYWQLASGNYHLQNNIGKVYDLSSQNIDEVVTQLQRSHSKIICLNDNDELDDYEGVKGKLVTTLNEKFSEKSKFELLEHHHHHH,not soluble
9,MGHYRGTWLEIGRMPMLLTDGCVAGYSTYRQGKSADEVLVEDGCREGTPQGKLKTINGVGKIEDFASTKAKMRVRYPLLITFNYWVLYKSPDKSWFISANPSTEDVWVYARSVPSKAKLNRMMMKVRELGYDVKKLEFPLEHHHHHH,soluble
10,MAGFISNFFGVGDSDSQYEEPTEASQAAAPTESATNTRSTPKVVPMQGGKSVNSKIALFEPKIYSDVKEIATQLLKNQAVIINFDHVDDEMARRIVDFLTGTVFAINGEIERIGDEIFLCIPENYEVSGSTTSQFDTSKLLEHHHHHH,not soluble
11,MDTEKLMKAGEIAKKVREKAIKLARPGMLLLELAESIEKMIMELGGKPAFPVNLSINEIAAHYTPYKGDTTVLKEGDYLKIDVGVHIDGFIADTAVTVRVGMEEDELMEAAKEALNAAISVARAGVEIKELGKAIENEIRKRGFKPIVNLSGHKIERYKLHAGISIPNIYRPHDNYVLKEGDVFAIEPFATIGAGQVIEVPPTLIYMYVRDVPVRVAQARFLLAKIKREYGTLPFAYRWLQNDMPEGQLKLALKTLEKAGAIYGYPVLKEIRNGIVAQFEHTIIVEKDSVIVTQDMINKST,soluble
12,MDKQLNDAPCGFLALSEEGSIIAANRTLIKILDYEPEQVIGQHMNMMLTIPAQLFCQLYFFPLLKLEHHIEEIYISLKARDGEEIPVLINAIARHDSGASVFDCVL,not soluble
13,MAHHHHHHMRRFCTARVSSYVKRAPLLLPRGGRRWRSGAGTTADGGGEKEYIADSFESTAGSNAYAAMELAAEARREIHELWLSAETALEREKRVQQVAALIEKYKLDPSTPREADVSRGLGDAFDRLLLLCLPLGKTDAKGTDNLERLMHLAGRNGRELSVRTIQHLFARTDSFAEALAVFYTMRRCHVAMNMEAYYSMLYSLQRLEEEGWGQHFRNEYEENGAPSEQAMDFIVKGISNALLPENKPWLGRVMFQDRNVPDRRYDTRDFDELDTAWTQRYKSGTPAGAH,not soluble
14,SGDVLWDIPTPKIIEECEHLEDGIYGIFQSTFLGASQRGVGVAQGGVFHTMWHVTRGAFLVRNGKKLIPSWASVKEDLVAYGGSWKLEGRWDGEEEVQLIAAVPGKNVVNVQTKPSLFKVRNGGEIGAVALDYPSGTSGSPIVNRNGEVIGLYGNGILVGDNSFVSAISQTEVKEEGKEELQEIPTMLKKGMTTVLDFHPGAGKTRRFLPQILAECARRRLRTLVLAPTRVVLSEMKEAFHGLDVKFHTQAFSAHGSGREVIDAMCHATLTYRMLEPTRVVNWEVIIMDEAHFLDPASIAARGWAAHRARANESATILMTATPPGTSDEFPHSNGEIEDVQTDIPSEPWNTGHDWILADKRPTAWFLPSIRAANVMAASLRKAGKSVVVLNRKTFEREYPTIKQKKPDFILATDIAEMGANLCVERVLDCRTAFKPVLVDEGRKVAIKGPLRISASSAAQRRGRIGRNPNRDGDSYYYSEPTSENNAHHVCWLEASMLLDNMEVRGGMVAPLYGVEGTKTPVSPGEMRLRDDQRKVFRELVRNCDLPVWLSWQVAKAGLKTNDRKWCFEGPEEHEILNDSGETVKCRAPGGAKKPLRPRWCDERVSSDQSALSEFIKFAEGRR,soluble
15,MQKEKLSALMDGETLDSELLKALTHDPEMQKTWESYHLIRDSMRGDTPDVLHFDISARVMAAIENEPVRQVSPLIPEAQPAPQQWQKMPFWKKVRPWAAQLTQMGVAACVSLAVIVGVQHYNGQSETSQQPETPVFNTLPMMGKASPVSLGVPSEAAPVGSQQQQVQEQRRRINAMLQDYELQRRLHSEQLQFEQAQTQQAAVQVPGIQTLGTQSQ,not soluble
16,MKTNFKQKIIEQARSEGLQVTALREQVLDIVLQQSGVIKAYNVLSQMQQQSEGVLAPPTAYRALDFWAEQGVLHKVAAVNGYILCSHAQHECDDHCHDHEEAEAHHSAFILVCTECGTADEQTLSHEWAALRAGVAESGFALKEEHVVLTGICKKCQQ,not soluble
17,MAHHHHHHMKPYVWPTSDEAPPPSGRRTFPRQFQVNHGTLNLFSPAVPESQQCNTRAAAGSFSITGQRGILHQRNHNKESTATREFPVNGLRRVSAPQRSETPHGIRHIRDAAGAQQHVQVVNITDAYKDPMQMGPRRTGVKCLPQKSESDDVSVALSFAGSRQQLSARVLAAPVGKPSRPSLYPIDYSDQERFAQAVRDHAQKRTRGLAEFYVQLVRDTVGSVTSSTPKPAIVPWSLDQEPTRRVLTLGRCRDQLVALTAMPISLSDLALLLWGAGNGEVANSDSLTSDCDKDASLPLNCRPVPFCDFAAAFGQNSSDVRLARMKV,not soluble
18,MSDVEKKSETQEAAPKKKPYNLREKKEKKAAYRSLIRAELADELYDKILNIVVVQKKYKDPNYSAKDLAKELKTNTRYLSAVVNSRFGMNYSCLLNEYRIKDALHLLVDKRYMDKNVEEISAMVGFANRQSFYAAFYKNVGETPNGYRKRNQEKK,not soluble
19,MGSHHHHHHSQDPMMSRLKTAVYDYLNDVDITECTEMDLLCQLSNCCDFINETYAKNYDTLYDIMERDILSYNIVNIKNTLTFALRDASPSVKLATLTLLASVIKKLNKIQHTDAAMFSEVIDGIVAEEQQVIGFIQKKCKYNTT,soluble
20,AHHHHHHGSVDMSKVKLRIENIVASVDLFAQLDLEKVLDLCPNSKYNPEEFPGIICHLDDPKVALLIFSSGKLVVTGAKSVQDIERAVAKLAQKLKSIGVKFKRAPQIDVQNMVFSGDIGREFNLDVVALTLPNCEYEPEQFPGVIYRVKEPKSVILLFSSGKIVCSGAKSEADAWEAVRKLLRELDKYGLLEEEEEEL,soluble
21,MTIKVGINGFGRIGRIVFRAAQKRSDIEIVAINDLLDADYMAYMLKYDSTHGRFDGTVEVKDGHLIVNGKKIRVTAERDPANLKWDEVGVDVVAEATGLFLTDETARKHITAGAKKVVMTGPSKDNTPMFVKGANFDKYAGQDIVSNASCTTNCLAPLAKVINDNFGIIEGLMTTVHATTATQKTVDGPSHKDWRGGRGASQNIIPSSTGAAKAVGKVLPELNGKLTGMAFRVPTPNVSVVDLTVRLEKAATYEQIKAAVKAAAEGEMKGVLGYTEDDVVSTDFNGEVCTSVFDAKAGIALNDNFVKLVSWYDNETGYSNKVLDLIAHISK,soluble
22,MKADHPEDIEDIKELIAQTENEQVEFKETTGQLERGMETLCAFLNGEGGTVLFGITDKGKIIGQEVADVTKRSIAEAINRLEPTANVHVFYIPLPDSSKKIIALHVENSRDNRPFCYKSRPYYRVESVTSAMPQAVYNQLLIIRDEAKYRWELFENPKLSLQDMDENEILKTVRLGIECGRLPENTGNNLSIILEKFGLLVNGVLNNAAAVLFANRELIEYPQCLLRLARFKGTDKMVFMDNQRVQGNLFQLLDSAMTFIFKHLSLSGTTEALEREEHLTIPYKAIREGIINSLCHRQFRTPGGSVGIAIYDDRVEIENPGTFPHGWDMERMKSEHCSEPRNPLIANVLYKRKLLENWGRGISLMTEECRKANLPEPEFKLANGFVILVFRYGTNNHTSTMQVPHKHHISTIQVQSLLNIMEYNTYSVKEMMELLELKNRSYFSKEYLKPAVETGVIEPIFPDQPKSPKQKYRLTEKGKALLEKRLEHHHHHH,soluble
